Results on 10 variants are retold here after IntAct's records for PubMed 25910212.

The chains are these.
B1: Aspartoacylase (Homo sapiens), P45381 (parent)
chain: MTSCHIAEEHIQKVAIFGGTHGNELTGVFLVKHWLENGAEIQRTGLEVKPFITNPRAVKKCTRYIDCDLNRIFDLENLGKKMSEDLPYEVRRAQEINHLFGPKDSEDSYDIIFDLHNTTSNMGCTLILEDSRNNFLIQMFHYIKTSLAPLPCYVYLIEHPSLKYATTRSIAKYPVGIEVGPQPQGVLRADILDQMRKMIKHALDFIHHFNEGKEFPPCAIEVYKIIEKVDYPRDENGEIAAIIHPNLQDQDWKPLHPGDPMFLTLDGKTIPLGGDCTVYPVFVNEAAYYEKKEAFAKTTKLTLNAKSIRCCLH
B2: E3 ubiquitin-protein ligase TRIM32 (Homo sapiens), Q13049 (parent)
chain: MAAAAASHLNLDALREVLECPICMESFTEEQLRPKLLHCGHTICRQCLEKLLASSINGVRCPFCSKITRITSLTQLTDNLTVLKIIDTAGLSEAVGLLMCRSCGRRLPRQFCRSCGLVLCEPCREADHQPPGHCTLPVKEAAEERRRDFGEKLTRLRELMGELQRRKAALEGVSKDLQARYKAVLQEYGHEERRVQDELARSRKFFTGSLAEVEKSNSQVVEEQSYLLNIAEVQAVSRCDYFLAKIKQADVALLEETADEEEPELTASLPRELTLQDVELLKVGHVGPLQIGQAVKKPRTVNVEDSWAMEATASAASTSVTFREMDMSPEEVVASPRASPAKQRGPEAASNIQQCLFLKKMGAKGSTPGMFNLPVSLYVTSQGEVLVADRGNYRIQVFTRKGFLKEIRRSPSGIDSFVLSFLGADLPNLTPLSVAMNCQGLIGVTDSYDNSLKVYTLDGHCVACHRSQLSKPWGITALPSGQFVVTDVEGGKLWCFTVDRGSGVVKYSCLCSAVRPKFVTCDAEGTVYFTQGLGLNLENRQNEHHLEGGFSIGSVGPDGQLGRQISHFFSENEDFRCIAGMCVDARGDLIVADSSRKEILHFPKGGGYSVLIREGLTCPVGIALTPKGQLLVLDCWDHCIKIYSYHLRRYSTP
B3: Cyclin-dependent kinase 4 inhibitor C (Homo sapiens), P42773 (parent)
chain: MAEPWGNELASAAARGDLEQLTSLLQNNVNVNAQNGFGRTALQVMKLGNPEIARRLLLRGANPDLKDRTGFAVIHDAARAGFLDTLQTLLEFQADVNIEDNEGNLPLHLAAKEGHLRVVEFLVKHTASNVGHRNHKGDTACDLARLYGRNEVVSLMQANGAGGATNLQ
B4: Adenosylhomocysteinase (Homo sapiens), P23526 (parent)
chain: MSDKLPYKVADIGLAAWGRKALDIAENEMPGLMRMRERYSASKPLKGARIAGCLHMTVETAVLIETLVTLGAEVQWSSCNIFSTQDHAAAAIAKAGIPVYAWKGETDEEYLWCIEQTLYFKDGPLNMILDDGGDLTNLIHTKYPQLLPGIRGISEETTTGVHNLYKMMANGILKVPAINVNDSVTKSKFDNLYGCRESLIDGIKRATDVMIAGKVAVVAGYGDVGKGCAQALRGFGARVIITEIDPINALQAAMEGYEVTTMDEACQEGNIFVTTTGCIDIILGRHFEQMKDDAIVCNIGHFDVEIDVKWLNENAVEKVNIKPQVDRYRLKNGRRIILLAEGRLVNLGCAMGHPSFVMSNSFTNQVMAQIELWTHPDKYPVGVHFLPKKLDEAVAEAHLGKLNVKLTKLTEKQAQYLGMSCDGPFKPDHYRY

Variants of B1 are the subject of the first assay. Conditions: with keap1_human KEAP1, Q14145.
keap1_human KEAP1, Q14145, sequence (Q14145 whole entry): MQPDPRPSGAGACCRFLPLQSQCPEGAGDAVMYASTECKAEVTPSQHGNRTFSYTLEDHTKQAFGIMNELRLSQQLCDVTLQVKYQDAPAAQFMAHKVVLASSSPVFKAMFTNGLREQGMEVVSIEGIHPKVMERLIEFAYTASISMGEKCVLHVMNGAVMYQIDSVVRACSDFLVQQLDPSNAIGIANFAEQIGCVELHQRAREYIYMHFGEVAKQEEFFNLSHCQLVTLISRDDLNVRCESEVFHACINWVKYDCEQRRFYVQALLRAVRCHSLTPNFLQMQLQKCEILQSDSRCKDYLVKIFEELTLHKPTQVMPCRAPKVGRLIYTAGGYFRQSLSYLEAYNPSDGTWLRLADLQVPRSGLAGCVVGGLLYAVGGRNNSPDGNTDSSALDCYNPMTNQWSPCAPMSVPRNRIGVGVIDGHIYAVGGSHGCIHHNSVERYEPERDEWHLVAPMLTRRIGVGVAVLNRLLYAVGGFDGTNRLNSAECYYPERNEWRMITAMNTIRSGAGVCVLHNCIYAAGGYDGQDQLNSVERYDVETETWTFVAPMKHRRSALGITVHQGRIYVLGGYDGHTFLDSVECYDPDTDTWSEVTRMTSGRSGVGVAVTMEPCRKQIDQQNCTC
Take MTSCHIAEEHIQKVAIFGGTHGNELTGVFLVKHWLENGAEIQRTGLEVKPFITNPRAVKKCTRYIDCDLNRIFDLENLGKKMSEDLPYEVRRAQEINHLFGPKDSEDSYDIIFDLHNTTSNMGCTLILEDSRNNFLIQMFHYIKTSLAPLPCYVYLIEHPSLKYATTRSIAKYPVGIEVGPQPQGVLRADILDQRRKMIKHALDFIHHFNEGKEFPPCAIEVYKIIEKVDYPRDENGEIAAIIHPNLQDQDWKPLHPGDPMFLTLDGKTIPLGGDCTVYPVFVNEAAYYEKKEAFAKTTKLTLNAKSIRCCLH [M195R]: the “effect of a mutation on the interaction” value is reported as “with no effect”.
The same measure, in the same setting: the entry for MTSCHIAEEHIQKVAIFGGTHGNELTGVFLVKHWLENGAEIQRTGLEVKPFITNPRAVKKCTRYIDCDLNRIFDLENLGKKMSEDLPYEVRRAQEINHLFGPKDSEDSYDIIFDLHNTTSNMGCTLILEDSRNNFLIQMFHYIKTSLAPLPCYVYLIEHPSLKYATTRSIAKYPVGIEVGPQPQGVLRADILDQMRKMIKHALDFIHHFNEGKEFPPCAIEVYKIIEKVDYPRDENGEIAAIIHPNLQDQDWKPLHPGDPMFLTLDGKTIPLGGDCTVYPVFVNAAAYYEKKEAFAKTTKLTLNAKSIRCCLH [E285A] is “disrupting interaction strength”; for MTSCHIAEEHIQKVAIFGGTHGNGLTGVFLVKHWLENGAEIQRTGLEVKPFITNPRAVKKCTRYIDCDLNRIFDLENLGKKMSEDLPYEVRRAQEINHLFGPKDSEDSYDIIFDLHNTTSNMGCTLILEDSRNNFLIQMFHYIKTSLAPLPCYVYLIEHPSLKYATTRSIAKYPVGIEVGPQPQGVLRADILDQMRKMIKHALDFIHHFNEGKEFPPCAIEVYKIIEKVDYPRDENGEIAAIIHPNLQDQDWKPLHPGDPMFLTLDGKTIPLGGDCTVYPVFVNEAAYYEKKEAFAKTTKLTLNAKSIRCCLH [E24G] it is “with no effect”.

Another assay covers variants of B1. To be noted: with keap1_human KEAP1, Q14145. This is another data set of the same source.
As for MTSCHIAEEHIQKVAIFGGTHGNELTGVFLVKHWLENGAEIQRTGLEVKPFITNPRAVKKCTRYIDCDLNRIFDLENLGKKMSEDLPYEVRRAQEINHLFGPKDSEDSYDIIFDLHNTTSNMGCTLILEDSRNNFLIQMFHYIKTSLAPLPCYVYLIEHPSLKYATTRSIAKYPVGIEVGPQPQGVLRADILDQRRKMIKHALDFIHHFNEGKEFPPCAIEVYKIIEKVDYPRDENGEIAAIIHPNLQDQDWKPLHPGDPMFLTLDGKTIPLGGDCTVYPVFVNEAAYYEKKEAFAKTTKLTLNAKSIRCCLH [M195R], the “effect of a mutation on the interaction” value was “causing an interaction”.
Consider MTSCHIAEEHIQKVAIFGGTHGNELTGVFLVKHWLENGAEIQRTGLEVKPFITNPRAVKKCTRYIDCDLNRIFDLENLGKKMSEDLPYEVRRAQEINHLFGPKDSEDSYDIIFDLHNTTSNMGCTLILEDSRNNFLIQMFHYIKTSLAPLPCYVYLIEHPSLKYATTRSIAKYPVGIEVGPQPQGVLRADILDQMRKMIKHALDFIHHFNEGKEFPPCAIEVYKIIEKVDYPRDENGEIAAIIHPNLQDQDWKPLHPGDPMFLTLDGKTIPLGGDCTVYPVFVNAAAYYEKKEAFAKTTKLTLNAKSIRCCLH [E285A], for which the “effect of a mutation on the interaction” value is “causing an interaction”.
On to MTSCHIAEEHIQKVAIFGGTHGNGLTGVFLVKHWLENGAEIQRTGLEVKPFITNPRAVKKCTRYIDCDLNRIFDLENLGKKMSEDLPYEVRRAQEINHLFGPKDSEDSYDIIFDLHNTTSNMGCTLILEDSRNNFLIQMFHYIKTSLAPLPCYVYLIEHPSLKYATTRSIAKYPVGIEVGPQPQGVLRADILDQMRKMIKHALDFIHHFNEGKEFPPCAIEVYKIIEKVDYPRDENGEIAAIIHPNLQDQDWKPLHPGDPMFLTLDGKTIPLGGDCTVYPVFVNEAAYYEKKEAFAKTTKLTLNAKSIRCCLH [E24G], for which the “effect of a mutation on the interaction” value was “causing an interaction”.

Another assay covers variants of B2. To be noted: with PDE9A.
P130S: the “effect of a mutation on the interaction” value was “with no effect”.
The same measure, in the same setting: the entry for R394H is “disrupting interaction strength”; for D487N it is “disrupting interaction strength”.

Variants of B2 are the subject of another assay. Conditions: with praf1_human RABAC1, Q9UI14.
praf1_human RABAC1, Q9UI14, sequence (Q9UI14 whole entry): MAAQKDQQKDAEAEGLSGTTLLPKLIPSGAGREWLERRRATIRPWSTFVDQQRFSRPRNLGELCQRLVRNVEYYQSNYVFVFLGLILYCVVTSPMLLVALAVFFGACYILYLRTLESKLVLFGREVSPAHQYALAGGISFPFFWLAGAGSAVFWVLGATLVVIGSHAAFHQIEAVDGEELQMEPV
Take P130S: the “effect of a mutation on the interaction” value is on record as “with no effect”.
Same read-out and setting: the value for R394H was “disrupting interaction strength”; that for D487N was “disrupting interaction strength”.

In another assay the parent is B2. Conditions: with ABI2, Q9NYB9-2.
ABI2, Q9NYB9-2, sequence (Q9NYB9 other isoform, or with tags, fused parts or gaps): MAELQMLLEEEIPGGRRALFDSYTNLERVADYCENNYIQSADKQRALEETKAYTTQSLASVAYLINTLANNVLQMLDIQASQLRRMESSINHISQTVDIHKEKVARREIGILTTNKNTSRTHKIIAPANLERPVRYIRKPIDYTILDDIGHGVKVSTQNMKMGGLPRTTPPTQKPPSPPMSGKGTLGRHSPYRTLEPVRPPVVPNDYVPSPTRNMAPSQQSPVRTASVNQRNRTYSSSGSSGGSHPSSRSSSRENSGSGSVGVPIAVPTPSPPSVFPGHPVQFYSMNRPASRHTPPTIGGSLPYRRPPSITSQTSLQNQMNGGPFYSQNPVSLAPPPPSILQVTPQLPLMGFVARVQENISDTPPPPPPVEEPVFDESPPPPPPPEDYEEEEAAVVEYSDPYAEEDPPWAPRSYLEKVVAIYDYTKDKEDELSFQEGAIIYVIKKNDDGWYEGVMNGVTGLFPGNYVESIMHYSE
In the case of P130S, the “effect of a mutation on the interaction” value is on record as “with no effect”.
The same measure, in the same setting: the entry for R394H is “disrupting interaction strength”; for D487N it is “disrupting interaction strength”.

A further assay covers variants of B2. Conditions: with PDE9A. This is another data set of the same source.
Turning to R394H, the “effect of a mutation on the interaction” value is “with no effect”.

The next assay covers variants of B3. To be noted: with cdk6_human CDK6, Q00534.
cdk6_human CDK6, Q00534, sequence (Q00534 whole entry): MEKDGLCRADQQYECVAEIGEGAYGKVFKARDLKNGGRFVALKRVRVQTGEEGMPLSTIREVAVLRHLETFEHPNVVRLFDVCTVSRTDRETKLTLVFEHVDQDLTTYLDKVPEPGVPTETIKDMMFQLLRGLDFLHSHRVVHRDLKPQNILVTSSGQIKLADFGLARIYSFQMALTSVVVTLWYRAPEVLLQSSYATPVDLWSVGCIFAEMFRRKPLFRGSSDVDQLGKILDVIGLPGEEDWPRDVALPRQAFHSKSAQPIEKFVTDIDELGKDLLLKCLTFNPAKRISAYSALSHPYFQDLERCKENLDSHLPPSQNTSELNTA
MAEPWGNELASAAARGDLEQLTSLLQNNVNLNAQNGFGRTALQVMKLGNPEIARRLLLRGANPDLKDRTGFAVIHDAARAGFLDTLQTLLEFQADVNIEDNEGNLPLHLAAKEGHLRVVEFLVKHTASNVGHRNHKGDTACDLARLYGRNEVVSLMQANGAGGATNLQ [V31L]: the “effect of a mutation on the interaction” value is “with no effect”.

The variants in a further assay derive from B3. Conditions: with TCF12, Q99081-3.
TCF12, Q99081-3, sequence (Q99081 other isoform, or with tags, fused parts or gaps): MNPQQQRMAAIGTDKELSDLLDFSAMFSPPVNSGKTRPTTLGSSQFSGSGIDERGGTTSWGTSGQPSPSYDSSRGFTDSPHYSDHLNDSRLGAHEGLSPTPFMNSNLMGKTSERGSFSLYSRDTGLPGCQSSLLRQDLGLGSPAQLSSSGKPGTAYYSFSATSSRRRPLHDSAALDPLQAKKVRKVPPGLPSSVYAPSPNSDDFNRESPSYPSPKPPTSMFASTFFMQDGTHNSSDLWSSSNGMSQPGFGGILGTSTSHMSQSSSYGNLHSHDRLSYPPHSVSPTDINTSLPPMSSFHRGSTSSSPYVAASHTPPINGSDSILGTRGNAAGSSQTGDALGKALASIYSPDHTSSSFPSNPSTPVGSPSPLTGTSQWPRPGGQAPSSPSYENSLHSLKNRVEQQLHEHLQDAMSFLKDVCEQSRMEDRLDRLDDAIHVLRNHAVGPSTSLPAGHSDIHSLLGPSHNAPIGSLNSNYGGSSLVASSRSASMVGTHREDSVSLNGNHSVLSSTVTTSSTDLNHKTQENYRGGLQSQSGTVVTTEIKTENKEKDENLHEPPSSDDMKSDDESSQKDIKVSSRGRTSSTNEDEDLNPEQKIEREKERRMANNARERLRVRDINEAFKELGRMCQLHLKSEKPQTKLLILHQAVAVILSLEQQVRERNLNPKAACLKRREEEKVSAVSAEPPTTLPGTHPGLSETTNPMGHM
On to MAEPWGNELASAAARGDLEQLTSLLQNNVNLNAQNGFGRTALQVMKLGNPEIARRLLLRGANPDLKDRTGFAVIHDAARAGFLDTLQTLLEFQADVNIEDNEGNLPLHLAAKEGHLRVVEFLVKHTASNVGHRNHKGDTACDLARLYGRNEVVSLMQANGAGGATNLQ [V31L], for which the “effect of a mutation on the interaction” value was “disrupting interaction strength”.

The variants in a further assay derive from B3. To be noted: with NAGK.
For MAEPWGNELASAAARGDLEQLTSLLQNNVNLNAQNGFGRTALQVMKLGNPEIARRLLLRGANPDLKDRTGFAVIHDAARAGFLDTLQTLLEFQADVNIEDNEGNLPLHLAAKEGHLRVVEFLVKHTASNVGHRNHKGDTACDLARLYGRNEVVSLMQANGAGGATNLQ [V31L], the “effect of a mutation on the interaction” value was “disrupting interaction strength”.

The next assay covers variants of B3. To be noted: with sahh2_human AHCYL1, O43865.
sahh2_human AHCYL1, O43865, sequence (O43865 whole entry): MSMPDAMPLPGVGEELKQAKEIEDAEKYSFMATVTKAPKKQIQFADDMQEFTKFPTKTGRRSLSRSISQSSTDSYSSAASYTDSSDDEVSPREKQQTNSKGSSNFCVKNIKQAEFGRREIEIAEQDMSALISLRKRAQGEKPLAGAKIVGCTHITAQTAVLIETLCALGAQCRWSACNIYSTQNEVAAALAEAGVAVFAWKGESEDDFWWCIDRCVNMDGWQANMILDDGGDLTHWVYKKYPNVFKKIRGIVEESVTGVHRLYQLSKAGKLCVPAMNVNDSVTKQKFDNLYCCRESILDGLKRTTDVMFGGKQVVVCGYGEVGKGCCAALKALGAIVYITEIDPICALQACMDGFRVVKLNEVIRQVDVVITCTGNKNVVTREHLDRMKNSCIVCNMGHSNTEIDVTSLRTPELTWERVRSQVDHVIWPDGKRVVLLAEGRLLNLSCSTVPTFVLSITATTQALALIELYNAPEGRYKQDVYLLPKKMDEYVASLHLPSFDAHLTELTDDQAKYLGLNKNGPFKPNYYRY
Regarding MAEPWGNELASAAARGDLEQLTSLLQNNVNLNAQNGFGRTALQVMKLGNPEIARRLLLRGANPDLKDRTGFAVIHDAARAGFLDTLQTLLEFQADVNIEDNEGNLPLHLAAKEGHLRVVEFLVKHTASNVGHRNHKGDTACDLARLYGRNEVVSLMQANGAGGATNLQ [V31L], the “effect of a mutation on the interaction” value was “disrupting interaction strength”.

Another assay covers variants of B3. Conditions: with TCF4, P15884-3.
TCF4, P15884-3, sequence (P15884 other isoform, or with tags, fused parts or gaps): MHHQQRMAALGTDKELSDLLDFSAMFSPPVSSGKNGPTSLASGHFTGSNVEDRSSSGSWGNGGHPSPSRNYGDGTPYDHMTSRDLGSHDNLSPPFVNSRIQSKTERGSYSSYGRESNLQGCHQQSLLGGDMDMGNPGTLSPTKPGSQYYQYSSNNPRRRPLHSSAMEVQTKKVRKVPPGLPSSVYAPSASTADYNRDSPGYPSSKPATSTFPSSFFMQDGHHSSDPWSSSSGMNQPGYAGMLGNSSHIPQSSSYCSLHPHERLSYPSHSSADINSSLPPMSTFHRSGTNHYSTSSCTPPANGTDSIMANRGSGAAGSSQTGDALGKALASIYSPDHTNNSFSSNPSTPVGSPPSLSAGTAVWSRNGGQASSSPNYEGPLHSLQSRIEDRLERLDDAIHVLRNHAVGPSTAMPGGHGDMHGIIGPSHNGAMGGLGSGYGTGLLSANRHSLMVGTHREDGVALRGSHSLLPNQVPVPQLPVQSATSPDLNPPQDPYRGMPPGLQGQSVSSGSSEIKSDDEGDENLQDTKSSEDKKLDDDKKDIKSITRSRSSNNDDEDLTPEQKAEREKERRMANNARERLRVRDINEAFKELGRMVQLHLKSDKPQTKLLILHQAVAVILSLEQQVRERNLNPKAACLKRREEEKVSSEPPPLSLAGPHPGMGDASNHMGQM
On to MAEPWGNELASAAARGDLEQLTSLLQNNVNLNAQNGFGRTALQVMKLGNPEIARRLLLRGANPDLKDRTGFAVIHDAARAGFLDTLQTLLEFQADVNIEDNEGNLPLHLAAKEGHLRVVEFLVKHTASNVGHRNHKGDTACDLARLYGRNEVVSLMQANGAGGATNLQ [V31L], for which the “effect of a mutation on the interaction” value is “disrupting interaction strength”.

Variants of B4 are the subject of a further assay. To be noted: with ca050_human C1orf50, Q9BV19.
ca050_human C1orf50, Q9BV19, sequence (Q9BV19 whole entry): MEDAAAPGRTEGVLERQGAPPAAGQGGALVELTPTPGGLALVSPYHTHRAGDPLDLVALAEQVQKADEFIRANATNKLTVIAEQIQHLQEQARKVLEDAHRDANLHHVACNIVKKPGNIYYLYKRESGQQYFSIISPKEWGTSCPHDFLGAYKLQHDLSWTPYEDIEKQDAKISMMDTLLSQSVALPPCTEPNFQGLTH
As to Y143C, the “effect of a mutation on the interaction” value was “with no effect”.
Still for that read-out and setting: the entry for A89V is “with no effect”; for D86G it is “with no effect”.

A further assay covers variants of B4. To be noted: with ca050_human C1orf50, Q9BV19. This is another data set of the same source.
As to D86G, the “effect of a mutation on the interaction” value is listed as “disrupting interaction strength”.
